Patent US20200347137A1

Molecular target: PD-L1 recombinant protein (human) (UniProt Q9NZQ7)
Assay: ForteBio Octet RED96, PD-L1 immobilised, antibody in solution

PD-L1 recombinant protein (human), sequence (Q9NZQ7 19-238 limits assumed): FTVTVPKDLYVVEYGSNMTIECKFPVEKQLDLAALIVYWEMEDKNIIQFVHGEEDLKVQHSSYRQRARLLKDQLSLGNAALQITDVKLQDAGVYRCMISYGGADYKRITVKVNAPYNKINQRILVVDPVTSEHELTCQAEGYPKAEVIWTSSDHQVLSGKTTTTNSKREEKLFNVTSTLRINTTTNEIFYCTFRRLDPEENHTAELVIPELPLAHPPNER

| Kd | koff | kon | Binder |
| --- | --- | --- | --- |
| 0.597 nM | 0.000303 s⁻¹ | 508000 M⁻¹ s⁻¹ | PL221G5 scFv-Fc (Fc fusion, part only; not given: linker and Fc, part only) chain, part: EVQLLESGGGLVQPGGSLRLSCAASGFSFSSGYDMCWVRQAPGKGLEWIACIAAGSAGITYDANWAKGRFTISRDNSKNTLYLQMNSLRAEDTAVYYCARSAFSFDYAMDLWGQGTLVTVSSGGGGSGGGGSGGGGSGGGGSDIQMTQSPSTLSASVGDRVTITCQASQSISSHLNWYQQKPGKAPKLLIYKASTLASGVPSRFSGSGSGTEFTLTISSLQPDDFATYYCQQGYSWGNVDNVFGGGTKVEIK |
| 0.917 nM | 0.000461 s⁻¹ | 503000 M⁻¹ s⁻¹ | PL230C6 scFv-Fc (Fc fusion, part only; not given: linker and Fc, part only) chain, part: QSVEESGGGLVQPGGSLRLSCTASGIDLNTYDMIWVRQAPGKGLEWVGIITYSGSRYYANWAKGRFTISKDNTKNTVYLQMNSLRAEDTAVYYCARDYMSGSHLWGQGTLVTVSSGGGGSGGGGSGGGGSGGGGSAYDMTQSPSSVSASVGDRVTIKCQASEDIYSFLAWYQQKPGKAPKLLIHSASSLASGVPSRFSGSGSGTDFTLTISSLQPEDFATYYCQQGYGKNNVDNAFGGGTKVEIK |
| 1.42 nM | 0.00055 s⁻¹ | 387000 M⁻¹ s⁻¹ | PL004B9 scFv-Fc (Fc fusion, part only; not given: linker and Fc, part only) chain, part: EVQLVESGGGLVQPGGSLRLSCTVSGIDLSVINMGWVRQAPGKGLEWIGTITYVGNTYYASWAKGRFTISKTSTTVDLKITSPTTEDTAVYYCARESGTIYYSYFNLWGQGTLVTVSSGGGGSGGGGSGGGGSGGGGSAFELTQSPSSLSASVGDRVTIKCQASESISNYLSWYQQIPGKVPKLLIYYASNLASGVPSRFSGSGSGTDFTLTISSLQPEDVATYYCQSYYGGGSAYTFGGGTKVEIK |
